Measured values taken from paper PMC11101452, “Structures of the mumps virus polymerase complex via cryo-electron microscopy” (Nature Communications, 2024).

Biological target: the molecule itself
Test: cryo-EM structure; L–P complex co-expressed in Sf9 and co-purified by the Strep tag of L; 2.0 μM; annealed and unannealed samples combined; 150 mM NaCl, 20 mM Tris-HCl, 6 mM MgCl2, 1 mM TCEP, pH 8.0; two conformations (L_(integral)–P, L_(body)–P)

B1: mumps virus (strain Jeryl-Lynn) phosphoprotein (P) (natural protein)
chain: MDQFIKQDETGDLIETGMNVANHFLSTPIQGTNSLSKASILPGVAPVLIGNPEQKNIQHPTASHQGSKTKGRGSGVRSIIVSPSEAGNGGTQIPEPLFAQTGQGGIVTTVYQDPTIQPTGSYRSVELAKIGKERMINRFVEKPRTSTPVTEFKRGGPGAAAQGQTIQEEGIDGNGASAGSKERSGSLSGATLYAHLSLPQQDSTPANVGIAPQSAISANEIMDLLRGMDARLQHLEQKVDKVLAQGSMVTQIKNELSTVKTTLATIEGMMATVKIMDPGNPTGVPVDELRRSFSDHVTIVSGPGDVSFSSSEKPTLYLDELARPVSKPRPAKQTKSQPVKDLAGQKVMITKMITDCVANPQMKQAFEQRLAKASTEDALNDIKRDIIRSAI
notes: Phosphoprotein (P) of mumps virus strain Jeryl-Lynn, GenBank AAF70389.1; domains NTD, OD, Linker2, CTD (with XD); Four P molecules (P1-P4) stand in the L–P complex; only POD, Linker2 and part of PCTD are resolved; also called MuV P; P1; not shown: Flag, C-terminal, kept
stoichiometry N: 4
